The results in this text go back to patent US20020164702A1.

For the assay, the target named is endogenous mouse MuSK on C2C12 myotubes or primary mouse myotubes (mouse) (UniProt Q61006). The experiment in a line: cell-based or functional assay.
Chain of UniProt Q61006 (Q61006 22-868): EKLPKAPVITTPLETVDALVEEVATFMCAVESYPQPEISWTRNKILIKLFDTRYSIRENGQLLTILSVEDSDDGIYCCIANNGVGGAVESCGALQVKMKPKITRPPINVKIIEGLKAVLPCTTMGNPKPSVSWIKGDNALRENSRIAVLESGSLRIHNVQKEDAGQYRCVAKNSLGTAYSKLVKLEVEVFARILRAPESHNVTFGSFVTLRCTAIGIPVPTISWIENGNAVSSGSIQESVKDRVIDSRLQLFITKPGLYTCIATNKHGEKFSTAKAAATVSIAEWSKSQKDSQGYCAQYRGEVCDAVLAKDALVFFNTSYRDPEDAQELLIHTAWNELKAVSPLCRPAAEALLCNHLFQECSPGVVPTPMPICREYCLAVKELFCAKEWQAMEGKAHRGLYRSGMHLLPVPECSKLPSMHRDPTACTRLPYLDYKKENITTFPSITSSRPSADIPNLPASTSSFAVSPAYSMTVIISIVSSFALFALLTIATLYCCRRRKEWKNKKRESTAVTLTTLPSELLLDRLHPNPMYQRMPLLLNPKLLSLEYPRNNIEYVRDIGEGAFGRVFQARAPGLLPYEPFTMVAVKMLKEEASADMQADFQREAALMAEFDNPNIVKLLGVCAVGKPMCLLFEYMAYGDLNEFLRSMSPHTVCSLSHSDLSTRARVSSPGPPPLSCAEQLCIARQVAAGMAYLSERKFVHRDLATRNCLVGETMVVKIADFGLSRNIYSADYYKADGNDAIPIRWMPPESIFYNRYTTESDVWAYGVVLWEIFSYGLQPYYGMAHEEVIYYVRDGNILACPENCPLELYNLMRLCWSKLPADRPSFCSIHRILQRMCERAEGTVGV

As for “agrin (isoform not stated at that place) (ligand)”, the tyrosine phosphorylation of MuSK in myotubes, dose worked out at 1 nM.
